Bridge positions count the residues as written; N and C are the ends. Ends that are not written are not given here. R1 = not defined here
Experiments:
human α4β7 integrin [1] = molecular target: T1, human α4β7 integrin (human, UniProt P13612 34-1032; P26010 20-798); assay: inhibition of RPMI 8866 cell adhesion to huMAdCAM-1-Ig
T1 construct: whole, on cells; assays run with Mn++; also called α4β7 on HUT 78 cells; α4β7 on RPMI 8866 cells

human α4β7 integrin [2] = molecular target: T1, human α4β7 integrin; assay: inhibition of HUT 78 cell adhesion to murine MAdCAM-1/mCk
Description: The assay was performed in a 96-well format. Plates were coated overnight at 4° C. with 53 μl/well of a 5 μg/mL solution of rat anti-mCk in carbonate buffer. The plates were blocked for 1 hour at 37° C. with 100 μL/well of 1% BSA in PBS. The BSA/PBS solution was removed, and 50 μL of MAdCAM-mCk supernatant was added neat to each well. The assay was conducted under conditions in which capture antibody was the limiting reagent.
Cell adhesion was measured in the presence or absence of compounds. The compounds were resuspended in 100% DMSO, subsequently diluted 1:10 in water, and finally diluted again 1:10 in the assay: 50 μL of 2X Assay Bufler, 30 μL water, 20 μL of compound were added to each well.
Over this range, Four different concentrations were tested in duplicate.

Binder | IC50 (human α4β7 integrin [1]) | IC50 (human α4β7 integrin [2])
R1-LDTSL (reading uncertain; also: printed as R1-Leu-Asp-Thr-Ser-Leu, not tied) [R1-Leu-Asp-Thr-Ser-Leu, L# 1276 (Table 4)] | 2.7 µM | 
Ac-CGLDTSLGC (disulfide 1-9; not fully specified (C-terminus); printed as Ac-Cys*-Gly-Leu-Asp-Thr-Ser-Leu-Gly-Cys*, also called Ex No 5; 00145-1B) [Ac-Cys*-Gly-Leu-Asp-Thr-Ser-Leu-Gly-Cys*] |  | 266 µM

Reference: US20020103111A1 (Takeda / Millennium, published 2002)
